Where no end group is shown, it is not given here. [ ]: non-standard residue; d: D form. hCit = NC(=O)NCCCC[C@H](N)C(=O)O
target: T1, HLA-DP4 (Homo sapiens, UniProt P04440+P20036); assay: DP4 competition assay with biotinylated Hep B peptide; conditions: inhibition of biotinylated Hep B binding to HLA-DP4; 5 fold excess test peptide, equal amount for unlabelled Hep B
T1 sequence (P20036 29-260): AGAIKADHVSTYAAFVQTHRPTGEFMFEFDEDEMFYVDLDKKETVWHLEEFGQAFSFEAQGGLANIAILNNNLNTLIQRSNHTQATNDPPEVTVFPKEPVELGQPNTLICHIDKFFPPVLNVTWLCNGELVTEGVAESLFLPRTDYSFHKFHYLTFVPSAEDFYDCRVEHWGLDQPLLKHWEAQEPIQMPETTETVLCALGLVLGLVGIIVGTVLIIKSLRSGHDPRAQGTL
T1 sequence (P04440 30-258): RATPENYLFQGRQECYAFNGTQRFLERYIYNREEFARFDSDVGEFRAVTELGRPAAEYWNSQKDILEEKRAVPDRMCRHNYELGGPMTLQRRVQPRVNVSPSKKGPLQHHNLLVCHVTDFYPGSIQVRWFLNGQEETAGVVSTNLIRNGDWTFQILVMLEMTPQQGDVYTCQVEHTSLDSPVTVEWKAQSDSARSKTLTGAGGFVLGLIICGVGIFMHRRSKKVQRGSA
Method: 2×T175 gave 2.5×10^7 B16 HHDII/DP4 (B16F1 β2M H2Ab1 dKO A35 HHDII/DP4 H7/2E9/F9 p14) cells. This was enough for 5 preps using the following protocol with Mem-PER™ Plus Membrane Protein Extraction Kit (thermo-scientific cat #89842).
5×10^6 cells were resuspended in the growth media by scraping the cells off the surface of the plate with a cell scraper and then centrifuged at 300 g for 5 mins. The cell pellet was washed with 3 ml of Cell Wash Solution and centrifuged at 300 g for 5 mins. The supernatant was removed and discarded. The cells were resuspended in 1.5 ml of Cell Wash Solution and transfer to a 2 ml centrifuge tube and centrifuged at 300 g for 5 mins. The supernatant was discarded. 0.75 ml of permeabilization buffer was added to the cell pellet and vortexed briefly to obtain a homogeneous cell suspension and incubated for 10 mins at 4° C. with constant mixing. The permeabilized cells were centrifuge for 15 mins at 16,000g before carefully removing the supernatant containing cytosolic proteins and transfering to a new tube. 0.5 ml of solubilization buffer was added to the pellet and resuspend prior to incubating at 4° C. for 30 minutes with constant mixing prior to centrifugation at 16,000g for 15 mins at 4° C. The supernatant containing solubilized membrane and membrane-associated proteins was transfered to a new tube. Aliquots were frozen at −80° C. for future use. 12.5 μl Halt™ Protease and Phosphatase Inhibitor Cocktail, EDTA-free (100X) thermo-scientific (Catalog number 78445) was added prior to freezing.
High binding plates were coated with streptavidin (Sigma S4762 at 1 mg/ml) 1/500 in PBS and incubated overnight at 4° C. The plates were blocked with 1% BSA in PBS for 4 hrs at room temp and washed 3×PBS/0.5% Tweenx. 450 μl of cell prep lysate (B16F1 B16 HHDII/DP4 H7/2E9/F9) was mixed with 50 μg test peptide (see below) or 10 μg of unlabelled Hep B peptide for 30 mins. 10 μg biotinylated Hep B peptide was added & incubated for 4 hrs at 37° C.:
Lysate/peptide mix was added to the plates at 100 μl/well and incubated for 4 hrs at room temperature. Plates were washed 3× with PBS/0.5% Tween. 100 μl per well of Leinco anti-Human HLA-DP4 clone B7/21 #H260 1 mg/ml at 1/500 dilution in 1% BSA/PBS was added and incubated for 1 hr at room temperature prior to washing 3× PBS/0.5% Tween. Goat anti-mouse lgG3-HRP at 0.5 mg/ml 1/500 100 μl per well (Invitrogen #M32607) diluted in 1% BSA/PBS) was added for 1 hr at room temperature prior to washing and adding 150 μl of TMB substrate to each well. The reaction was stopped with 50 μl of 2N H2SO4 and plates read plate at 450 nm.
To ensure that the biotinylation of Hep B had not interfered with its binding, HLA-DP4 was incubated with equal amounts of biotinylated and unlabelled Hep B peptide. Unlabelled peptide competed equally reducing binding by 47% (FIG. 53b).
The biotinylated HepB peptide was then incubated with a 5 fold excess of the unlabelled homocitrulline peptides. All peptides inhibited the binding of biotinylated Hep B to HLA-DP4 but to varying levels (FIG. 53c-e).

Substance	% inhibition
LEQQN-hcit-MLET-hcit-WSLLQQQ-hcit-T (LEQQN[hCit]MLET[hCit]WSLLQQQ[hCit]T) [Cyk8 112-131 Hcit]	64%
HACTQ-hcit-FSH(N)EEIAMATVTA (HACTQ[hCit]FSHNEEIAMATVTA; not fully specified; printed as HACTQ-hcit-FSH(N)EEIAMATVTA) [Aldolase A 238-256 Hcit]	73%
LREYQELMNV-hcit-LALDIEI (LREYQELMNV[hCit]LALDIEI) [Cyk8 371-388 Hcit]	72%
EIN-hcit-RTEMENEFVLI-hcit-hcit-DVDE (EIN[hCit]RTEMENEFVLI[hCit][hCit]DVDE) [Cyk8 182-202 Hcit]	61%
hcit-DGADFA-hcit-WRCVL-hcit-IGEH ([hCit]DGADFA[hCit]WRCVL[hCit]IGEH) [Aldolase A 140-157 Hcit]	76%
IGGVILFHETLYQ-hcit-ADDGRP (IGGVILFHETLYQ[hCit]ADDGRP) [Aldolase A 74-93 Hcit]	69%
NYID-Hcit-VRFLEQQN-Hcit-ILLAEL (NYID[hCit]VRFLEQQN[hCit]ILLAEL) [Vimentin 116-135 Hcit]	44%
KFASFID-Hcit-VRFLEQQN-Hcit-MLE (KFASFID[hCit]VRFLEQQN[hCit]MLE) [Cyk8 101-120 Hcit]	71%

same assay, conditions: inhibition of biotinylated Hep B binding to HLA-DP4; 5 fold excess test peptide, equal amount for unlabelled Hep B; listed as Cyk8 281-399 Hcit

Substance	% inhibition
hcit-LALDIEIATYR-hcit-LLEGEE ([hCit]LALDIEIATYR[hCit]LLEGEE) [Cyk8 381-399 Hcit]	60%

Source: patent US12458688B2, “Epitopes” (Scancell Limited, priority 2018, dated 2025)
